According to paper PMC6321125, “Characterization of a Carbonyl Reductase from Rhodococcus erythropolis WZ010 and Its Variant Y54F for Asymmetric Synthesis of (S)-N-Boc-3-Hydroxypiperidine” (Molecules, 2018):

How the values were obtained:
Test in all cases: purified protein
purified protein [1] = substrate: CC(C)(C)OC(=O)N1CCCC(=O)C1; type: biochemical, Rhodococcus erythropolis; conditions: apparent, 0.4 mM NADH, standard assay 50 mM PIPES pH 6.0, 60 °C
purified protein [2] = substrate: CCCCCCC(C)=O; type: biochemical, Rhodococcus erythropolis; conditions: apparent, 0.4 mM NADH, standard assay 50 mM PIPES pH 6.0, 60 °C
purified protein [3] = substrate: CCCCCCC(C)O; type: biochemical, Rhodococcus erythropolis; conditions: apparent, 0.4 mM NAD+, standard assay 50 mM CAPSO pH 10.0, 50 °C
purified protein [4] = substrate: CC(C)=O; type: biochemical, Rhodococcus erythropolis; conditions: apparent, 0.4 mM NADH, standard assay 50 mM PIPES pH 6.0, 60 °C
purified protein [5] = substrate: CC(C)O; conditions: apparent, 0.4 mM NAD+, standard assay 50 mM CAPSO pH 10.0, 50 °C

B1: ReCR (Rhodococcus erythropolis; G336R/K233S/K67R/N94S/Q110S) (protein)
chain: MKAIQYTRIGAEPELTEIPKPEPGPGEVLLEVTAAGVCHSDDFIMSLPEEQYTYGLPLTLGHEGAGRVAAVGEGVEGLDIGTNVVVYGPWGCGSCWHCSQGLENYCSRASELGINPPGLGAPGALAEFMIVDSPRHLVPIGDLDPVKTVPLTDAGLTPYHAIKRSLPKLRGGSYAVVIGTGGLGHVAIQLLRHLSAATVIALDVSADKLELATKVGAHEVVLSDKDAAENVRSITGSQGAALVLDFVGYQPTIDTAMAVAGVGSDVTIVGIGDGQAHAKVGFFQSPYEASVTVPYWGARNELIELIDLAHAGIFDIAVETFSLDNGAEAYRRLAARTLSGRAVVVPGL
Purified protein [1]
  Km: 1740 ± 80 µM
  Vmax: 104 µmol/min/mg
  kcat: 62.6 ± 1.49 s⁻¹
  kcat/Km: 36000 ± 860 M⁻¹ s⁻¹
Purified protein [2]
  Km: 3290 ± 50 µM
  Vmax: 236 µmol/min/mg
  kcat: 142 ± 3.11 s⁻¹
  kcat/Km: 43300 ± 950 M⁻¹ s⁻¹
Purified protein [3]
  Km: 4940 ± 450 µM
  Vmax: 107 µmol/min/mg
  kcat: 64.4 ± 1.66 s⁻¹
  kcat/Km: 13000 ± 340 M⁻¹ s⁻¹
Purified protein [4]
  Km: 46060 ± 2620 µM
  Vmax: 66.3 µmol/min/mg
  kcat: 40.1 ± 1.98 s⁻¹
  kcat/Km: 870 ± 40 M⁻¹ s⁻¹
Purified protein [5]
  Km: 1460 ± 60 µM
  Vmax: 23.5 µmol/min/mg
  kcat: 14.2 s⁻¹
  kcat/Km: 9740 M⁻¹ s⁻¹

B2: ReCR (Rhodococcus erythropolis; G336R/K233S/K67R/N94S/Q110S/Y54F) (protein)
chain: MKAIQYTRIGAEPELTEIPKPEPGPGEVLLEVTAAGVCHSDDFIMSLPEEQYTFGLPLTLGHEGAGRVAAVGEGVEGLDIGTNVVVYGPWGCGSCWHCSQGLENYCSRASELGINPPGLGAPGALAEFMIVDSPRHLVPIGDLDPVKTVPLTDAGLTPYHAIKRSLPKLRGGSYAVVIGTGGLGHVAIQLLRHLSAATVIALDVSADKLELATKVGAHEVVLSDKDAAENVRSITGSQGAALVLDFVGYQPTIDTAMAVAGVGSDVTIVGIGDGQAHAKVGFFQSPYEASVTVPYWGARNELIELIDLAHAGIFDIAVETFSLDNGAEAYRRLAARTLSGRAVVVPGL
Purified protein [1]
  Km: 1730 ± 50 µM
  Vmax: 141 µmol/min/mg
  kcat: 85.1 ± 3.94 s⁻¹
  kcat/Km: 49200 ± 2280 M⁻¹ s⁻¹
Purified protein [2]
  Km: 3110 ± 120 µM
  Vmax: 274 µmol/min/mg
  kcat: 165 ± 4.58 s⁻¹
  kcat/Km: 53200 ± 1470 M⁻¹ s⁻¹
Purified protein [3]
  Km: 1370 ± 80 µM
  Vmax: 128 µmol/min/mg
  kcat: 77.5 ± 1.88 s⁻¹
  kcat/Km: 56600 ± 1370 M⁻¹ s⁻¹
Purified protein [4]
  Km: 37320 ± 560 µM
  Vmax: 90.5 µmol/min/mg
  kcat: 54.7 ± 1.02 s⁻¹
  kcat/Km: 1470 ± 30 M⁻¹ s⁻¹
Purified protein [5]
  Km: 1030 ± 50 µM
  Vmax: 35.3 µmol/min/mg
  kcat: 21.3 s⁻¹
  kcat/Km: 20700 M⁻¹ s⁻¹
